Measurements taken from patent publication US10184116B2, “Chimeric genes for the catalytic protein of Oplophorus luciferase and use thereof” (JNC CORPORATION, priority 2014, dated 2019).
Positions count from the first letter of the chain named. Numbers in names are those of the source.

B1: WNanoKAZ: chimeric protein: positions 1-82 of native KAZ and 83-169 of nanoKAZ; SEQ ID NO: 6; I90V, P115E, Q124K, Y138I, N166R (protein)
chain: FTLADFVGDWQQTAGYNQDQVLEQGGLSSLFQALGVSVTPIQKVVLSGENGLKADIHVIIPYEGLSGFQMGLIEMIFKVVYPVDDHHFKVILHYGTLVIDGVTPNMIDYFGRPYEGIAVFDGKKITVTGTLWNGNKIIDERLINPDGSLLFRVTINGVTGWRLCERILA
notes: chimeric protein: positions 1-82 of native KAZ and 83-169 of nanoKAZ; I90V, P115E, Q124K, Y138I, N166R
B2: KAZ: 19 kDa protein of native Oplophorus luciferase having luminescence activity; SEQ ID NO: 2 (protein, listed as Oplophorus gracilirostris)
chain: B1 chain with V90I, E115P, K124Q, I138Y, R166N

How the values were obtained:
[1] = tested on: CHO-K1 cells; experiment: Luminescence activity of WNanoKAZ mutants expressed by secretory expression vectors in animal culture cells (Example 13); type: cell-based, Chinese hamster; details: pcDNA3-GLsp- secretory vector, coelenterazine substrate
Method: (§1) Chinese hamster ovary cell line CHO-K1 was cultured in Ham's F-12 medium (manufactured by Wako Pure Chemical Industries, Ltd.) supplemented with 10% (v/v) fetal bovine serum (manufactured by Biowest Inc.). The CHO-K1 cells were seeded in a 6-well plate in 1×10^5 cells/well/2 mL medium (n=2) and cultured in an incubator at 37° C. in 5% (v/v) CO2. After 24 hours, the purified recombinant plasmid was transfected to CHO-K1 cells using a FuGene HD transfection kit (manufactured by Promega Corp.) and the cells were used for subsequent experiment. Specifically, 1 μg of the recombinant plasmid, 0.1 μg of the internal standard vector pGL4.13 [Luc2/sv40] and 3 μL of FuGene HD were added to 100 μL of the medium and allowed to stand at room temperature for 15 minutes. Subsequently, 100 μL of the DNA-FuGene complex solution was added to the cells in the 6-well plate. After incubation for 46 hours, the culture medium was collected. On the other hand, the KAZ mutant expressed in the cells was washed 3 times with 3 mL of 1×PBS, then suspended in 1 mL of 1×PBS and disrupted by sonication on ice. The resultant cell extract of WNanoKAZ was used as the enzyme solution.
(§2) After adding 5 μL of the culture medium and cell extract obtained in EXAMPLE 5 to 100 μL of 30 mM Tris-HCl (pH 7.6)-10 mM EDTA (Wako Pure Chemical Industries, Ltd.) containing 1 μg of coelenterazine (manufactured by JNC Corp.), a luminescence reaction was started. Luminescence activity was measured for 60 seconds using a luminometer (manufactured by Atto Inc.: AB2200). The maximum intensity of luminescence (Imax) was given as a percentage (%).
The recombinant plasmid obtained in EXAMPLE 12 or 4 was purified in a manner similar to EXAMPLE 5 and dissolved in sterile water. The firefly luciferase vector (pGL4.13 [Luc2/sv40]: manufactured by Promega Corp.) was similarly prepared and used as an internal standard.
Culture medium containing two amino acid-substituted KAZ mutants and three amino acid-substituted KAZ mutants and cell extracts of the KAZ mutants as the enzyme solutions were prepared by the same procedure as in EXAMPLE 9.
The resultant culture medium and cell extracts were used to measure luminescence activity as in EXAMPLE 6.

[2] = Luminescence activity of ZZ-fused WNanoKAZ mutants in crude enzyme solution (Example 10); type: biochemical; details: coelenterazine substrate; for Relative luminescence activity (Imax): ZZ-fused, pCold-ZZ-P- vector in E. coli, KAZ = 1.0
Method: In order to express ZZ-fused KAZ mutants in E. coli, the recombinant plasmid produced in EXAMPLE 8 and pCold-ZZ-P-WNanoKAZ produced in EXAMPLE 1 were used. The crude enzyme solution was prepared in a manner similar to EXAMPLE 2, using the E. coli BL21 strain (Novagen, Madison, Wis.) as a host cell. Then, 5 μL of the crude enzyme solution obtained was subjected to SDS-PAGE analysis to confirm the protein expression in all mutants. In FIG. 1, M and 1 to 8 represent as follows. M: molecular weight size markers; 1: ZZ-P-KAZ; 2: ZZ-P-WNanoKAZ; 3: ZZ-P-WNanoKAZ-V90I; 4: ZZ-P-WNanoKAZ-E115P; 5: ZZ-P-WNanoKAZ-K124Q; 6: ZZ-P-WNanoKAZ-I138Y; 7: ZZ-P-WNanoKAZ-R166N; 8: ZZ-P-dnKAZ. It was confirmed from FIG. 1 that all mutants were expressed.
(§3) DTT was added to the crude enzyme solution obtained in EXAMPLE 9 at a final concentration of 1 mM, and then allowed to stand in an ice-water bath over 8 hours or more. After 1 μL of the crude enzyme solution was added to 100 μL of 30 mM Tris-HCl (pH 7.6)-10 mM EDTA (Wako Pure Chemical Industries, Ltd.) containing 1 μg of coelenterazine (manufactured by JNC Corp.), a luminescence reaction was started. Luminescence activity was measured for 60 seconds using a luminometer (manufactured by Atto Inc.: AB2200). The maximum intensity of luminescence (Imax) was given as a relative luminescence activity (rlu).

[3] = Luminescence activity of WNanoKAZ in crude enzyme solution (Example 3); type: biochemical; details: for Relative luminescence activity (Imax): pCold-ZZ-P- vector in E. coli, KAZ = 1.0
Method: In order to express WNanoKAZ in E. coli, pCold-ZZ-P-WNanoKAZ obtained in EXAMPLE 1 was used. The E. coli BL21 strain (Novagen, Madison, Wis.) was used as a host cell. The BL21 strain carrying the recombinant plasmid was incubated in 5 mL of Luria-Bertani medium (hereinafter designated as LB medium) containing ampicillin (50 μg/mL) at 37° C. for 17 hours. The seed culture of 0.1 mL was inoculated to 10 mL of LB medium and incubated for 3 hours, followed by cooling in freezing water for 1 hour. IPTG was added to the culture medium at a final concentration of 0.1 mM, followed by incubation at 15° C. for further 19 hours. After completion of the incubation, 1 mL of the culture medium was collected by centrifugation at 10,000 rpm for 2 minutes. The collected E. coli cells were suspended in 0.5 mL of 30 mM Tris-HCl (pH 7.6)-10 mM EDTA. The cells were disrupted by sonication for 3 seconds using a Branson Model 250 Sonifire (Danbury, Conn.) to give a crude enzyme solution. Then, DTT was added to the crude enzyme solution at a final concentration of 1 mM. After the mixture was allowed to stand in freezing water over 8 hours or more, the luminescence activity was measured.
1 μl of the crude enzyme solution obtained in EXAMPLE 2 was added to 100 μl of 30 mM Trix-HCl (pH 7.6)-10 mM EDTA (Wako Pure Chemical Industries, Ltd.) containing 1 μg of coelenterazine (manufactured by JINC Corp.), luminescence reaction was started. Luminescence activity was measured for 60 seconds using a luminometer (manufactured by Atto Inc.: AB2200); the maximum intensity of luminescence (Imax) was given as a relative luminescence activity.

[4] = Substrate specificity of WNanoKAZ mutants, crude enzyme solution (Example 11); type: biochemical; details: for Relative luminescence activity, 6h-CTZ, Imax / Relative luminescence activity, 6h-CTZ, Int.: substrate 6h-CTZ; for Relative luminescence activity, 6h-f-CTZ, Imax / Relative luminescence activity, 6h-f-CTZ, Int.: substrate 6h-f-CTZ; for Relative luminescence activity, CTZ, Imax / Relative luminescence activity, CTZ, Int.: substrate CTZ
Method: as §3
Each of the coelenterazine analogues used for substrate specificity studies was synthesized by the methods described in publications. Specifically, bis-coelenterazine was synthesized by the method described in Nakamura et al. (1997) Tetrahedron Lett. 38: 6405-6406, furimazine by the method described in Hall et al. (2012) ACS Chem. Biol. […], and, 6h-coelenterazine, f-coelenterazine and 6h-f-coelenterazine by the method described in Inouye et al (2013) Biochem. Biophys. Res. Commun. 437: 23-28. Luminescence activity was measured by the same method as in EXAMPLE 10, using the crude enzyme solution obtained in EXAMPLE 10, in which coelenterazine or its analogue was used as the luminescence substrate.

[5] = tested on: CHO-K1 cells; experiment: Luminescence activity of KAZ mutants expressed in animal cultured cells, culture medium and cell extract (Example 6); type: cell-based, Chinese hamster; details: pcDNA3-GLsp- vector in CHO-K1, coelenterazine substrate
Method: as §1, §2

[6] = crude enzyme solution, coelenterazine substrate

Molecule | Relative luminescence activity (%, Imax) Cell extracts [1] [%] | Relative luminescence activity (%, Imax) Culture medium [1] [%] | Relative luminescence activity (Imax) [2] | Relative luminescence activity (Imax) [3, 6] | Relative luminescence activity, Furimazine, Imax [4] | Relative luminescence activity, bis-CTZ, Imax [4] | Relative luminescence activity, f-CTZ, Imax [4] | Relative luminescence activity, h-CTZ, Imax [4] | Relative luminescence activity, Furimazine, Int. [4] | Relative luminescence activity, bis-CTZ, Int. [4] | Relative luminescence activity, f-CTZ, Int. [4] | Relative luminescence activity, h-CTZ, Int. [4] | Relative luminescence activity, 6h-CTZ, Imax [4] | Relative luminescence activity, 6h-CTZ, Int. [4] | Relative luminescence activity, 6h-f-CTZ, Imax [4] | Relative luminescence activity, 6h-f-CTZ, Int. [4] | Relative luminescence activity, CTZ, Imax [4] | Relative luminescence activity, CTZ, Int. [4] | Relative luminescence activity (%, Imax) Cell extracts [5] [%] | Relative luminescence activity (%, Imax) Culture medium [5] [%] | also measured
B1 | 22 | <0.01 | 64 | 64 | 26 | 32 | 48 | 64 | 29 | 24 | 32 | 33 | 8.9 | 7.5 | 41 | 34 | 64 | 56 | 22 | <0.01 | fold higher activity than native KAZ ([2]; Imax): 64 fold; fold higher activity than the relative activity 7.4 of dnKAZ ([2]; Imax): 8.6 fold; fold higher activity than that of dnKAZ ([3]; coelenterazine used as the substrate, as shown in EXAMPLE 3): 64 fold; fold higher activity than native KAZ ([3]; crude enzyme solution, coelenterazine substrate, Imax): 64 fold; fold higher activity than the other coelenterazine analogues when coelenterazine was used as the substrate ([4]; coelenterazine substrate): 8.6 fold
B2 | 0.2 | 0.1 | 1.0 | 1.0 | 0.2 | 0.5 | 1.0 | 1.2 | 0.3 | 0.1 | 0.9 | 0.9 | 0.08 | 0.1 | 0.3 | 0.4 | 1.0 | 1.0 | 0.2 | 0.1 | 
